Measured values taken from patent US5981483A, “Compositions comprising modulators of cytokines of the TGF-β superfamily” (Mount Sinai Hospital Corporation, priority 1997, dated 1999).

Molecular target: T1, BMP-2 (Homo sapiens, UniProt P12643)
T1 construct: Genetics Institute, Cambridge, Mass; (gift)
T1 sequence (P12643 283-396): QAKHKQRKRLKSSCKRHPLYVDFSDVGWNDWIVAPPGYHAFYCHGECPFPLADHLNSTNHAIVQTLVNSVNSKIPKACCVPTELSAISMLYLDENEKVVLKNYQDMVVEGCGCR
Assay: BIAcore surface plasmon resonance, binding to immobilized BMP-2
Settings: Table 2 (calculations repeated); ligand BMP-2
Description: In this system, a purified protein serving as the ligand is covalently coupled to a carboxymethylated dextran surface, and binding molecules (i.e. the analyte) are passed in a fluid phase across the surface. Binding of the analyte to ligand causes a change in reflected light which is directly proportional to mass bound, and is measured in arbitrary response units (R.U.). Analyte-ligand binding is observed as both increasing response with time during the injection of analyte, and the difference in the position of the baseline before and after injection.
Schuster, R. V. Swanson, L. A. Alex, R. B. Bourret, M. I. Simon, Nature 365, 343 (1993). 1000 R.U. equals approximately 1 ng/mm^2. The running buffer was 20 mM Hepes (pH 7.2), 150 mM NaCl and the flow rate for all sensorgrams was 3 μl/min.
Regeneration of the surface to remove bound analyte was done by injection of 10 μl of 20 mM NaOH. To cyclize TRH1 peptides, the material was reduced with 5 mM DTT then brought to a final concentration of 60 μM in 25 mM ammonium acetate (pH 8.5). […]
Data was analyzed using the BIA-evaluation software (Pharmacia Biosensor). The association rate constant, kass, was calculated by first plotting the change in response with time versus response (i.e. dR/dT vs R). […] The affinity constants were calculated from KD =kdiss /kass. […]

B1: h-Fetuin: adult human fetuin/α2-HS glycoprotein (Calbiochem) (protein)
chain: APHGPGLIYRQPNCDDPETEEAALVAIDYINQNLPWGYKHTLNQIDEVKVWPQQPSGELFEIEIDTLETTCHVLDPTPVARCSVRQLKEHAVEGDCDFQLLKLDGKFSVVYAKCDSSPDSAEDVRKVCQDCPLLAPLNDTRVVHAAKAALAAFNAQNNGSNFQLEEISRAQLVPLPPSTYVEFTVSGTDCVAKEATEAAKCNLLAEKQYGFCKATLSEKLGGAEVAVTCMVFQTQPVSSQPQPEGANEAVPTPVVDPDAPPSPPLGAPGLPPAGSPPDSHVLLAAPPGHQLHRAHYDLRHTFMGVVSLGSPSGEVSHPRKTRTVVQPSVGAAAGPVVPPCPGRIRHFKV
kass: 22000 ± 5000 M⁻¹ s⁻¹
